Test results published in US20240287501A1 (VIB VZW, published 2024).

Key:
[1] = biological target: T1, BMH1 (native, from EBY100 lysate) (Saccharomyces cerevisiae, UniProt P29311 2-267); test: co-IP, Nb on NHS-agarose beads, EBY100 yeast lysate, SDS-PAGE
T1 construct: mature; Endogenous untagged protein; also called YER177W
T1 sequence (looked up): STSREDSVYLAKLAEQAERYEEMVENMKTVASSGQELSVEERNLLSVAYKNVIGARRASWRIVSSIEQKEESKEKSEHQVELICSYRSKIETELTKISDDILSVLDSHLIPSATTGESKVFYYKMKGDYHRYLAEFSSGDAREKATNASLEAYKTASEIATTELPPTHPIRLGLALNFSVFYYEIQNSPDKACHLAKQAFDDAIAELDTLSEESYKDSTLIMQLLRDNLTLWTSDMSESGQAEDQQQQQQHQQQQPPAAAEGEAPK

[2] = biological target: T2, GFP-tagged BMH1 (Saccharomyces cerevisiae, UniProt P29311 2-267); test: co-IP, Nb on NHS-agarose beads, lysate of GFP-fusion yeast strain, SDS-PAGE and anti-GFP Western blot
T2 construct: Yeast GFP Fusion Collection strain; also called Yeast GFP fusion collection GFP(+)27, D5; not shown: GFP tag
T2 sequence (looked up): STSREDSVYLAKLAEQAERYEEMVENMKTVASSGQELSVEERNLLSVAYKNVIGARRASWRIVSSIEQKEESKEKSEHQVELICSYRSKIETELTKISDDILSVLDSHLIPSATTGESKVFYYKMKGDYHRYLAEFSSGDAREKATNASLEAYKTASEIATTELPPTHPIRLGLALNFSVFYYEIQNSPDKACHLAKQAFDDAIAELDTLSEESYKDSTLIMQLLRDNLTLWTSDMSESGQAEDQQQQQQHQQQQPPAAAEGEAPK
From the text: After washing, these beads were resuspended in SDS-PAGE loading dye and analyzed on SDS-PAGE (FIG. 8A). Separated proteins were transferred to a PVDF membrane and the Western blot (FIG. 8B) was developed with GFP-specific antibody to confirm the presence of GFP-tagged targets.
For each target selection of binders in this example, as detailed in Table 2, after 3 rounds of selection by panning using NANEX technology, individual clones were isolated from the enriched sub-library by plating tenfold serial dilutions of the overnight-grown phage-infected E. coli TG1 cells in LB. 96 individual clones were picked and grown in a 96-well plate containing LB supplemented with 100 μg/ml ampicillin. Plasmids containing the Nanobody encoding genes were purified, sequenced and grouped into sequence families (Material and methods). A representative member of each sequence family was selected. Their encoding plasmid was transformed into the E. coli WK6 expression strain to express and purify each Nanobody of interest. […] After washing, these beads were resuspended in SDS-PAGE loading dye and analyzed on SDS-PAGE (as in the Figure specified in Table 2 for each target). […] For each target-specific Nanobody analysed in this way, the co-immunoprecipitation with the EBY100 lysate gives a predominant band corresponding to the expected molecular weight of the target protein. […]

[3] = biological target: T3, Rat Vesicular GLUtamate Transporter 1 (full-length, HEK293T lysate of Example 7) (rat, UniProt Q62634 1-560); test: NANEX: capture from DDM lysate of HEK293T cells, elution with the same Nb
T3 construct: mature; Produced in HEK293T cells as published (Schenck et al., 2017), solubilised in DDM; also called rVGLUT1; rat VGLUT1
T3 sequence (looked up): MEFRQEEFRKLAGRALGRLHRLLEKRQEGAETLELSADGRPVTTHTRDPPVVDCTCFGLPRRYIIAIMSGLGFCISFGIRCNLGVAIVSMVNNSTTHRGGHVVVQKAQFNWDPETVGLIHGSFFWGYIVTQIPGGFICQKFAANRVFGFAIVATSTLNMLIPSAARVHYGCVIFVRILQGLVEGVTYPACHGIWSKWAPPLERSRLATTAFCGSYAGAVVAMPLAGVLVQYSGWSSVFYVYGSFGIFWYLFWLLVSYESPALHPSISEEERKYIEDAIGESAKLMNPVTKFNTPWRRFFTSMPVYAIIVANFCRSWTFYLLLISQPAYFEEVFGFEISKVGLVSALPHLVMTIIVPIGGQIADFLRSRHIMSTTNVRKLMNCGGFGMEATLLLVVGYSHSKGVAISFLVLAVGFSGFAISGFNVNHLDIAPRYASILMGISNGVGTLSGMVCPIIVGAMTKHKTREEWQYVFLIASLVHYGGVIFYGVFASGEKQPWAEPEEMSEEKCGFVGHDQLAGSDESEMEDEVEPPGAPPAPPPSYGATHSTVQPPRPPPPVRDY

[4] = biological target: T4, SIS1 (native, from EBY100 lysate) (Saccharomyces cerevisiae, UniProt P25294 1-352); test: co-IP, Nb on NHS-agarose beads, EBY100 yeast lysate, SDS-PAGE
T4 construct: mature; Endogenous untagged protein; also called YNL007C
T4 sequence (looked up): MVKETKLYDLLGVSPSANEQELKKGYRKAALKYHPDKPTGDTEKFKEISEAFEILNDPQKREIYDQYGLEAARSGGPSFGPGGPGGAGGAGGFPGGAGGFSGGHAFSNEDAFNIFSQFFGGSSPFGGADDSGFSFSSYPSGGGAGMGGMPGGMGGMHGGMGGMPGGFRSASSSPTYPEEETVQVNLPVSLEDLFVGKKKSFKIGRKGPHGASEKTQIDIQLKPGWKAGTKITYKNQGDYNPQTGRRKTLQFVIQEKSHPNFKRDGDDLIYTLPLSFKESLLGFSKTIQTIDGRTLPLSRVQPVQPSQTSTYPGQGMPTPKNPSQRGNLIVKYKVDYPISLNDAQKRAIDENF

[5] = biological target: T5, GFP-tagged SIS1 (Saccharomyces cerevisiae, UniProt P25294 1-352); test: co-immunoprecipitation, Nb coupled to NHS-agarose beads, lysate of the yeast strain expressing the GFP-tagged target, Western blot anti-GFP
T5 construct: Yeast GFP Fusion Collection strain; also called Yeast GFP fusion collection GFP(+)22, E5; not shown: GFP tag
T5 sequence (looked up): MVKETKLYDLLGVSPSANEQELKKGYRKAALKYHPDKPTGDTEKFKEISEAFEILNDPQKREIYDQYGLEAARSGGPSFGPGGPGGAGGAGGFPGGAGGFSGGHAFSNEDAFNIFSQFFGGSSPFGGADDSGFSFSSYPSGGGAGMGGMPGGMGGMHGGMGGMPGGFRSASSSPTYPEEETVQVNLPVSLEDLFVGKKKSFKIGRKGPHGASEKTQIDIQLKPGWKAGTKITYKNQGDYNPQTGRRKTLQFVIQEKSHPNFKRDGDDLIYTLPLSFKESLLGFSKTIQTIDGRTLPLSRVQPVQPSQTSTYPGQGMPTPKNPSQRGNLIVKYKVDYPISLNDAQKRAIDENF
Experimental: One SIS1-specific Nanobody (44=Nb clone CA17444 corresponding to SEQ ID NO: 9), three ALD6-specific Nanobodies (53=CA17453-SEQ ID NO: 10, 54=CA17454-SEQ ID NO: 11, 60=CA17460-SEQ ID NO: 12), two BMH1-specific Nanobodies (58=CA17458-SEQ ID NO: 13, 59=CA17459-SEQ ID NO: 14) were characterized by co-immunoprecipitation assays. Each target-specific Nanobodies was covalently linked to NHS-agarose beads. The beads that were functionalized with these target-specific Nanobodies were incubated for an hour at 4° C. on a rotating device with either an EBY100 lysate or the lysate of the engineered Yeast strain expressing the target (Yeast GFP fusion collection reference for SIS1: GFP(+)22, E5, for ALD6: GFP(+)15, F1, for BMH1: GFP(+)27, D5) as a GFP-tagged protein. After washing, these beads were resuspended in SDS-PAGE loading dye and analyzed on SDS-PAGE (FIG. 8A). Separated proteins were transferred to a PVDF membrane and the Western blot (FIG. 8B) was developed with GFP-specific antibody to confirm the presence of GFP-tagged targets.

[6] = biological target: T6, SXM1 (native, from EBY100 lysate) (Saccharomyces cerevisiae, UniProt Q04175 1-944); test: co-IP, Nb on NHS-agarose beads, EBY100 yeast lysate, SDS-PAGE
T6 construct: mature; Endogenous untagged protein; also called YDR395W
T6 sequence (looked up): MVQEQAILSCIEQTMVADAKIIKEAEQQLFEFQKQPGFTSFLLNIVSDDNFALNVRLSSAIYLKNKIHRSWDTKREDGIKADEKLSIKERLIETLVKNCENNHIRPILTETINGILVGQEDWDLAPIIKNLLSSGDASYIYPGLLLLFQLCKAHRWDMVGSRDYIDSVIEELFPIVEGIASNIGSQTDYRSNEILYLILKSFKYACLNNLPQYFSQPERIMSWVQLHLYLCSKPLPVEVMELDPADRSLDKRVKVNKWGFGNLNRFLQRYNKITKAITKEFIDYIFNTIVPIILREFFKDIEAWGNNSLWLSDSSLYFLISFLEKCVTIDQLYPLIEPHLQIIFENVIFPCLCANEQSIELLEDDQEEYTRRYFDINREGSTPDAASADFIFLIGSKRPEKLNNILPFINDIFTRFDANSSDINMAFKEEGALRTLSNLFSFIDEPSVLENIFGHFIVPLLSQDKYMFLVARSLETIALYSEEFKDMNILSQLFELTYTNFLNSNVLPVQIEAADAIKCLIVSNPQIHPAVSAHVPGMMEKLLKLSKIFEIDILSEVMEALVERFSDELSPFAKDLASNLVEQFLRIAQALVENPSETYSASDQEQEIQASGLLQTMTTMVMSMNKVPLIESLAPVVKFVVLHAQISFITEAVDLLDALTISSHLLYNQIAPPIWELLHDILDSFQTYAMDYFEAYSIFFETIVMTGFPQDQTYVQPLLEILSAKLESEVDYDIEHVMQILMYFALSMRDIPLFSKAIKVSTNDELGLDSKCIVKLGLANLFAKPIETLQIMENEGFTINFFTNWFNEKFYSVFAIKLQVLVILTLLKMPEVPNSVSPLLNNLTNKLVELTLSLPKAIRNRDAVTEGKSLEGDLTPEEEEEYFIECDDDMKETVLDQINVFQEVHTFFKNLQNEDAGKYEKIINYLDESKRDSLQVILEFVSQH

[7] = biological target: T7, GFP-tagged SXM1 (Saccharomyces cerevisiae, UniProt Q04175 1-944); test: co-immunoprecipitation, Nb coupled to NHS-agarose beads, lysate of the yeast strain expressing the GFP-tagged target, Western blot anti-GFP
T7 construct: Yeast GFP Fusion Collection strain; also called Yeast GFP fusion collection GFP(+)04, H9; not shown: GFP tag
T7 sequence (looked up): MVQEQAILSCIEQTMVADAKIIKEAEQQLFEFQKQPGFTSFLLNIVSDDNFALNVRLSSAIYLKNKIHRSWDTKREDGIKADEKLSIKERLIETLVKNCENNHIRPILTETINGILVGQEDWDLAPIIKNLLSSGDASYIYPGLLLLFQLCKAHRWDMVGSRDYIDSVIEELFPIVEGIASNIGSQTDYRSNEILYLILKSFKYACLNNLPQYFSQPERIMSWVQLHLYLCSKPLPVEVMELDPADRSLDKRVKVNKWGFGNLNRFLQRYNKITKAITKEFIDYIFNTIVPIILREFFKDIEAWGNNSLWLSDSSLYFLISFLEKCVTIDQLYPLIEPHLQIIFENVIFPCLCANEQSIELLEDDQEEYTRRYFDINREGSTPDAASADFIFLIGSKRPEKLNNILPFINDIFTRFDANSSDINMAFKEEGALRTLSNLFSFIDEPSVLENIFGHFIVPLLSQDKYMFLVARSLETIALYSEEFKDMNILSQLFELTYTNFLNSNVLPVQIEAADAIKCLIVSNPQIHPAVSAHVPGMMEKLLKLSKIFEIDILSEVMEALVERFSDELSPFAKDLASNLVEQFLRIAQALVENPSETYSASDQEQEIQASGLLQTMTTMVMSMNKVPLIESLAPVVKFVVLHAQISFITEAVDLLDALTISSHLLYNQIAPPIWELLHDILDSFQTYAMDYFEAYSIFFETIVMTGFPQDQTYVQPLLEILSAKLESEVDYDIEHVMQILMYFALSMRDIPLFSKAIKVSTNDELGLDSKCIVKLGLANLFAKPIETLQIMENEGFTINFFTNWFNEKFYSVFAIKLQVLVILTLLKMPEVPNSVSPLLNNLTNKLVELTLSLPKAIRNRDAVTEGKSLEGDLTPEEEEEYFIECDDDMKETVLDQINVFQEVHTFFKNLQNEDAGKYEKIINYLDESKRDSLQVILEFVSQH
Experimental: One SXM1-specific Nanobody (30=Nb clone CA17530 corresponding to SEQ ID NO: 18) was characterized by co-immunoprecipitation assays. The SXM1-specific Nanobody was covalently linked to NHS-agarose beads. The beads that were functionalized with this SXM1-specific Nanobody were incubated for an hour at 4° C. on a rotating device with either an EBY100 lysate or the lysate of the engineered Yeast strain expressing SXM1 GFP(+)04, H9) as a GFP-tagged protein. After washing, these beads were resuspended in SDS-PAGE loading dye and analyzed on SDS-PAGE (FIG. 9A). Separated proteins were transferred to a PVDF membrane and the Western blot (FIG. 9B) was developed with GFP-specific antibody to confirm the presence of GFP-tagged SXM1.

B1: CA17459 (VHH)
VHH: QVQLVESGGGEVQTGGSLRLSCTASGSRLNFGSWNWYRKRGENYRELVAAMGPSTGHTHYGDSMKGRVTISLNAAKDTLFLQMNSLKPEDTAVYYCAADLDGLGFPRGSFYGMDYWGKGTQVTVSS
notes: C-terminal 6xHis-EPEA tag is part of the entry
B1: binds [1]; binds [2].

B2: CA17875 (VHH)
VHH: QVQLQESGGGLVQAGGSLRLSCAASGRSVRTWSMGWFRQPPGKERELVAGISWSGSGTYHADSVKGRFTISRDNAKNMVYLQMNSLKPEDTAVYYCAAGQTGWNPGSDFHRWGKGTQVTVSS
notes: C-terminal 6xHis-EPEA tag is part of the entry; also called rVGLUT1-specific trapper/stripper
B2: binds [3].

B3: CA17444 (VHH)
VHH: QVQLVESGGGLVQPGGSLRLSCAASGFTLDYYAIGWFRQAPGKEREGVSCISSSDGSTVYADSVKGRFTISRDNAKNTVYLQMSNLKPEDTAVYYCATDQITSTGCPDFDSWGQGTQVTVSS
notes: as for B1
B3: binds [4]; binds [5].

B4: CA17530 (VHH)
VHH: QVQLVESGGGLVQTGGSLRLSCVVSKTLFSINAMAWYRQSPGKPRELVAGWTSGGRTSYGDSVKGRFTISRDNAENTLYLQMNDVKPEDTAVYHCAADYLVVAGKPGYDYAYWGQGTQVTVSS
notes: as for B1
B4: binds [6]; binds [7].
